{"source": "patent US20110212075A1", "about": "“SCREENING METHOD FOR POLYMORPHIC MARKERS IN HTRA1 GENE IN NEURODEGENERATIVE DISORDERS” (SIEMENS AKTIENGESELLSCHAFT, priority 2007, published 2011)", "key": {"HtrA1": {"molecular_target": "T1, HtrA1 (Homo sapiens, UniProt Q92743)", "T1 construct": "made in house; host or cells: Escherichia coli BL21 D3+", "T1 sequence (Q92743 158-480 limits assumed)": "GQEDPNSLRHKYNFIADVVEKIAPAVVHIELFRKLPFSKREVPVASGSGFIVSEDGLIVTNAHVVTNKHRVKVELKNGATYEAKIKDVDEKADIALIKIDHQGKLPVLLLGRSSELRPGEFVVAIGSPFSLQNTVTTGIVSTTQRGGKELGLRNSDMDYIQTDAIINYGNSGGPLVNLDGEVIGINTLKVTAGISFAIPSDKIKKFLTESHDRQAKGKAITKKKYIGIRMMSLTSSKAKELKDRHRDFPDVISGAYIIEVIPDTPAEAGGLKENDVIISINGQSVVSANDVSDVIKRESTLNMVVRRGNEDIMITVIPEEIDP", "experiment": "HtrA1 activation by peptides (degradation of wt-tau, SDS/PAGE)", "assay_type": "biochemical", "conditions": "peptide 200 μM in DMSO, HtrA1 (0.04 μg) preincubated 10 minutes at 37° C., wt-tau (2 μg) 10 minutes at 37° C., Coomassie gel, FIG. 18", "protocol": "Purified wt-tau (2 μg) was incubated with HtrA1 (0.04 μg) for 10 minutes at 37° C. HtrA1 was preincubated with different peptides for 10 minutes at 37° C. All peptides were dissolved in DMSO and added to a final concentration of 200 μM. Wt-tau was incubated with DQLAFHQFYI (lane 1), KKKDSRIWWV (lane 2) and with HtrA1 and DMSO as a control (lane 3). Samples were loaded on a SDS/PAGE. The gel was stained with Coomassie Blue.\n(§1) HtrA1 interacts with presenilin 1 (PS1). This was evident from data obtained from copurification, comigration during size exclusion chromatography and two hybrid analyses. […] Such a peptide could be used as a basis to synthesise a potent HtrA1 activator that could be of therapeutic relevance. […] This peptide did however not bind to HtrA1 composed of protease and PDZ domain as shown by Isothermal Titration calorimetry. Only after adding […] residues, the peptide did bind to HtrA1."}, "[1]": {"molecular_target": "T2, HtrA1 composed of protease and PDZ domain (Homo sapiens, UniProt Q92743)", "T2 construct": "HtrA1 composed of protease and PDZ domain", "T2 sequence (Q92743 158-480 limits assumed)": "as above", "experiment": "Binding of peptide to HtrA1 by Isothermal Titration calorimetry", "description": "as §1"}, "PDZ domain of HtrA1": {"molecular_target": "PDZ domain of HtrA1 (Homo sapiens, UniProt Q92743)", "sequence (Q92743 365-467 limits assumed)": "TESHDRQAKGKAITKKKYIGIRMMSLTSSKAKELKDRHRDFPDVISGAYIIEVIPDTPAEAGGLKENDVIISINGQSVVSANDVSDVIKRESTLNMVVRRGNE", "conditions": "Runyon et al. Protein Sci. 16:2454-71 (2007); cited from earlier work"}}, "data": [{"substance": "KKKDSRIWWV [second peptide, DSRIWWV with 3 added N-terminal residues]", "values": [{"measurement": "activation of HtrA1 as shown by a more efficient degradation of tau", "setting": "HtrA1", "result": "weaker activator"}, {"measurement": "binding to HtrA1", "setting": "[1]", "result": "did bind"}]}, {"substance": "DQLAFHQFYI [peptide comprised of the 10 C-terminal residues of PS1 (presenilin 1)]", "values": [{"measurement": "activation of HtrA1 as shown by a more efficient degradation of tau", "setting": "HtrA1", "result": "activate HtrA1"}]}, {"substance": "DSRIWWV [reference compound]", "values": [{"measurement": "binding to the PDZ domain of HtrA1", "setting": "PDZ domain of HtrA1", "result": "excellent binding"}, {"measurement": "binding to HtrA1", "setting": "[1]", "result": "not bind"}]}]}
